± gives the uncertainty stated by the source.
Experiment: self-splicing fitness, log relative to wild type (ln ratio); higher = more splicing; Tetrahymena group I intron in knt gene, E. coli kanamycin selection, DiMSum; sequences stand for … in CUCUCU…GGAGGGAAAAGUUAUCAGGCAUGCACCUGGUAGCUAGUCUUUAAACCAAUAGAUUGCAUCGGUUUAAAAGGCAAGACCGUCAAAUUGCGGGAAAGGGGUCAACAGCCGUUCAGUACCAAGUCUCAGGGGAAACUUUGAGAUGGCCUUGCAAAGGGUAUGGUAAUAAGCUGACGGACAUGGUCCUAACCACGCAGCCAAGUCCUAAGUCAACAGAUCUUCUGUUGAUAUGGAUGCAGUUCACAGACUAAAUGUCGGUCGGGGAAGAUGUAUUCUUCUCAUAAGAUAUAGUCGGACCUCUCCUUAAUGGGAGCUAGCGGAUGAAGUGAUGCAACACUGGAGCCGCUGGGAACUAAUUUGUAUGCGAAAGUAUAUUGAUUAGUUUUGGAGUACUCGUGGUCG
Procedure, shortened: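 DiMSum derived fitness as the error-weighted combination of fold changes across replicates, kanamycin versus no kanamycin, normalised to wild type. E. coli BL21(DE3) held the library, which randomised all eight P1ex-region intron nucleotides within the knt kanamycin-resistance gene on pET-22b(+). Six replicate transformations grew overnight at 37°C or 30°C on LB agar with or without 25 μg/mL kanamycin, also containing 100 μg/mL carbenicillin, 50 μM IPTG and 0.2% rhamnose, and pooled colonies were amplicon-sequenced on an Illumina HiSeq 2500.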

Row | Sequence | self-splicing fitness (ln) (30 °C) | self-splicing fitness (ln) (37 °C)
1 | UGACAGCAAUAUUACGUAGA | -2.29 ± 0.085 | -1.14 ± 0.11
2 | UGACAGCAAUAUUACGUAUC | -2.91 ± 0.097 | -2.57 ± 0.13
3 | UGACAGCAAUAUUACGUGUA | -1.58 ± 0.081 | -0.841 ± 0.081
4 | UGACAGCAAUAUUACGUUAC | -3.81 ± 0.35 | -3.32 ± 0.31
5 | UGACAGCAAUAUUACGUUCC | -1.55 ± 0.1 | -0.947 ± 0.14
6 | UGAGAGCAAUAUUACGAAAC |  | -1.1 ± 0.37
7 | UGAGAGCAAUAUUACGACGG | -2.66 ± 0.2 | -2.56 ± 0.25
8 | UGAGAGCAAUAUUACGAGCG | -1.84 ± 0.24 | -1.81 ± 0.31
9 | UGAGAGCAAUAUUACGAUUA | -0.816 ± 0.19 | -0.653 ± 0.3
10 | UGAGAGCAAUAUUACGCACC | -1.54 ± 0.26 | -1.15 ± 0.45
11 | UGAGAGCAAUAUUACGCAUG | -1.65 ± 0.13 | -2.09 ± 0.18
12 | UGAGAGCAAUAUUACGCUAA | -2.28 ± 0.31 | -2.53 ± 0.31
13 | UGAGAGCAAUAUUACGCUUG | -2.26 ± 0.36 | -1.55 ± 0.33
14 | UGAGAGCAAUAUUACGCUUU | -4.15 ± 0.29 | -1.96 ± 0.17
15 | UGAGAGCAAUAUUACGGACG | -1.67 ± 0.28 | -0.294 ± 0.41
16 | UGAGAGCAAUAUUACGGAUC | -1.94 ± 0.25 | -2.32 ± 0.49
17 | UGAGAGCAAUAUUACGGCAU | -2.88 ± 0.23 | -2.85 ± 0.33
18 | UGAGAGCAAUAUUACGGCCA | -1.63 ± 0.25 | 
19 | UGAGAGCAAUAUUACGGGAU |  | -1.77 ± 0.37
20 | UGAGAGCAAUAUUACGGGGA | -3.16 ± 0.43 | -2.77 ± 0.27
21 | UGAGAGCAAUAUUACGUAGA | -2.94 ± 0.33 | -1.28 ± 0.35
22 | UGAGAGCAAUAUUACGUAUU | -3.22 ± 0.34 | -1 ± 0.21
23 | UGAGAGCAAUAUUACGUCUC | -1.78 ± 0.38 | 
24 | UGAGAGCAAUAUUACGUGGG | -2.83 ± 0.29 | -1.38 ± 0.2
25 | UGAGAGCAAUAUUACGUUAA |  | -2.46 ± 0.3

Row | Sequence | self-splicing fitness (ln) (30 °C) | self-splicing fitness (ln) (37 °C)
26 | UGAUAGCAAUAUUACGACAG | -1.41 ± 0.11 | -1.59 ± 0.1
27 | UGAUAGCAAUAUUACGACAU | -2.587 ± 0.02 | -1.26 ± 0.035
28 | UGAUAGCAAUAUUACGACCA | -2.04 ± 0.23 | -0.327 ± 0.37
29 | UGAUAGCAAUAUUACGAGCG | -0.553 ± 0.11 | 0.433 ± 0.15
30 | UGAUAGCAAUAUUACGAGGA | -3.09 ± 0.3 | -2.82 ± 0.48
31 | UGAUAGCAAUAUUACGAGGG |  | -2.38 ± 0.4
32 | UGAUAGCAAUAUUACGCAGU | -2.93 ± 0.44 | -2.51 ± 0.27
33 | UGAUAGCAAUAUUACGCCCC | -2.85 ± 0.43 | -0.875 ± 0.38
34 | UGAUAGCAAUAUUACGCCCU | -0.0785 ± 0.15 | 0.0233 ± 0.21
35 | UGAUAGCAAUAUUACGCGAC | -3.55 ± 0.28 | 
36 | UGAUAGCAAUAUUACGCUAG | -1.09 ± 0.081 | -0.588 ± 0.078
37 | UGAUAGCAAUAUUACGCUCU | -1.41 ± 0.11 | 0.193 ± 0.15
38 | UGAUAGCAAUAUUACGGGCA | -0.911 ± 0.075 | 0.244 ± 0.12
39 | UGAUAGCAAUAUUACGGGCG | -0.568 ± 0.099 | 0.157 ± 0.1
40 | UGAUAGCAAUAUUACGGGGU | -2.68 ± 0.21 | -2.35 ± 0.28
41 | UGAUAGCAAUAUUACGUCAC | -4.14 ± 0.22 | -2.81 ± 0.22
42 | UGAUAGCAAUAUUACGUCAU | -3.03 ± 0.27 | -2.16 ± 0.2
43 | UGAUAGCAAUAUUACGUGAA | -3 ± 0.17 | -1.7 ± 0.16
44 | UGAUAGCAAUAUUACGUGCA | -0.486 ± 0.054 | 0.164 ± 0.076
45 | UGAUAGCAAUAUUACGUGGU | -2.4 ± 0.21 | -2.73 ± 0.23
46 | UGCAAGCAAUAUUACGACCG | 0.118 ± 0.086 | 0.563 ± 0.13
47 | UGCAAGCAAUAUUACGACGA | -0.804 ± 0.074 | 0.648 ± 0.087
48 | UGCAAGCAAUAUUACGAGGU | -3.41 ± 0.23 | -2.26 ± 0.17
49 | UGCAAGCAAUAUUACGAGUG | -1.42 ± 0.052 | -0.498 ± 0.062
50 | UGCAAGCAAUAUUACGAUAU | -3.42 ± 0.2 | -0.49 ± 0.1

Row | Sequence | self-splicing fitness (ln) (30 °C) | self-splicing fitness (ln) (37 °C)
51 | UGCAAGCAAUAUUACGCAAU | -3.55 ± 0.4 | -2.06 ± 0.32
52 | UGCAAGCAAUAUUACGCACG | -2.14 ± 0.3 | -0.955 ± 0.13
53 | UGCAAGCAAUAUUACGCGAG | -3.25 ± 0.15 | -2.36 ± 0.16
54 | UGCAAGCAAUAUUACGCGGU | -3.01 ± 0.23 | -2.25 ± 0.21
55 | UGCAAGCAAUAUUACGGAUA | -1.68 ± 0.11 | -0.698 ± 0.12
56 | UGCAAGCAAUAUUACGGCCA | -0.252 ± 0.08 | 1.07 ± 0.14
57 | UGCAAGCAAUAUUACGGCUG | -2.12 ± 0.14 | -1.14 ± 0.18
58 | UGCAAGCAAUAUUACGGUUU | -2.53 ± 0.071 | -1.28 ± 0.071
59 | UGCAAGCAAUAUUACGUAAA | -1.9 ± 0.087 | -1.01 ± 0.12
60 | UGCAAGCAAUAUUACGUAAC | -4.96 ± 0.38 | -0.276 ± 0.14
61 | UGCAAGCAAUAUUACGUACU | -0.936 ± 0.13 | 0.0223 ± 0.17
62 | UGCAAGCAAUAUUACGUCAG | -1.98 ± 0.088 | -0.64 ± 0.087
63 | UGCAAGCAAUAUUACGUGGG | -3.73 ± 0.17 | -2.93 ± 0.19
64 | UGCCAGCAAUAUUACGACAU | -3.366 ± 0.021 | -1.9 ± 0.035
65 | UGCCAGCAAUAUUACGACGC | -3.03 ± 0.22 | -1.68 ± 0.25
66 | UGCCAGCAAUAUUACGACGG | -3.23 ± 0.12 | -1.42 ± 0.13
67 | UGCCAGCAAUAUUACGACUG | -2.79 ± 0.12 | -2.14 ± 0.13
68 | UGCCAGCAAUAUUACGAGAA |  | -0.955 ± 0.25
69 | UGCCAGCAAUAUUACGAGAC | -3.05 ± 0.2 | -2.05 ± 0.26
70 | UGCCAGCAAUAUUACGAGCC | -0.839 ± 0.087 | 0.369 ± 0.15
71 | UGCCAGCAAUAUUACGCAAA | -2.41 ± 0.19 | -1.5 ± 0.17
72 | UGCCAGCAAUAUUACGCAUA | -1.67 ± 0.088 | -1.26 ± 0.087
73 | UGCCAGCAAUAUUACGCAUC | -3.52 ± 0.25 | -2.2 ± 0.2
74 | UGCCAGCAAUAUUACGCCAA | -1.24 ± 0.15 | -1.8 ± 0.21
75 | UGCCAGCAAUAUUACGCGGU | -2.55 ± 0.3 | -2.45 ± 0.25

Row | Sequence | self-splicing fitness (ln) (30 °C) | self-splicing fitness (ln) (37 °C)
76 | UGCCAGCAAUAUUACGCUAG | -4.69 ± 0.39 | -1.35 ± 0.22
77 | UGCCAGCAAUAUUACGGAUG | -1.21 ± 0.093 | -0.248 ± 0.12
78 | UGCCAGCAAUAUUACGGCUG | -3.47 ± 0.15 | -2.17 ± 0.16
79 | UGCCAGCAAUAUUACGGUCG | -1.14 ± 0.068 | -0.0276 ± 0.075
80 | UGCCAGCAAUAUUACGGUGC | -4.01 ± 0.18 | -2.14 ± 0.21
81 | UGCCAGCAAUAUUACGGUUA | -0.355 ± 0.059 | 0.213 ± 0.066
82 | UGCCAGCAAUAUUACGUACU | 0.158 ± 0.14 | -1.19 ± 0.19
83 | UGCGAGCAAUAUUACGAACA | -1.47 ± 0.14 | 0.122 ± 0.18
84 | UGCGAGCAAUAUUACGACGG | -1.41 ± 0.15 | -0.347 ± 0.16
85 | UGCGAGCAAUAUUACGCAGA | -3.13 ± 0.37 | -1.84 ± 0.38
86 | UGCGAGCAAUAUUACGCAGG | -4.38 ± 0.46 | -2.18 ± 0.28
87 | UGCGAGCAAUAUUACGCAGU |  | -4.06 ± 0.39
88 | UGCGAGCAAUAUUACGCCUA | -2.48 ± 0.19 | -0.762 ± 0.16
89 | UGCGAGCAAUAUUACGCUGC | -3.09 ± 0.25 | -2.31 ± 0.29
90 | UGCGAGCAAUAUUACGCUUC | -3.96 ± 0.39 | -3.67 ± 0.39
91 | UGCGAGCAAUAUUACGGACA | -0.643 ± 0.14 | 0.226 ± 0.2
92 | UGCGAGCAAUAUUACGUACA | -2.18 ± 0.2 | 0.427 ± 0.21
93 | UGCGAGCAAUAUUACGUAUG | -3.11 ± 0.16 | -2.29 ± 0.21
94 | UGCGAGCAAUAUUACGUCUC | -0.82 ± 0.28 | 
95 | UGCGAGCAAUAUUACGUGUG | -2.78 ± 0.18 | -2.15 ± 0.15
96 | UGCUAGCAAUAUUACGAAAA | -2.16 ± 0.15 | -1.72 ± 0.15
97 | UGCUAGCAAUAUUACGAACU | -1.12 ± 0.15 | -0.251 ± 0.15
98 | UGCUAGCAAUAUUACGAGUU | -1.64 ± 0.11 | 0.518 ± 0.12

Reference: the supplement of paper PMC7877785
